Test results published in paper PMC2828547, “UIF, a New mRNA Export Adaptor that Works Together with REF/ALY, Requires FACT for Recruitment to mRNA” (Current Biology, 2009).

Target: T1, GST-UAP56 (UniProt Q13838 1-428)
T1 construct: UAP56
Test: pull-down; GST fusion proteins with purified UIF in the presence of RNase; Coomassie staining
Conditions: both partners purified

T1 sequence (Q13838 whole entry): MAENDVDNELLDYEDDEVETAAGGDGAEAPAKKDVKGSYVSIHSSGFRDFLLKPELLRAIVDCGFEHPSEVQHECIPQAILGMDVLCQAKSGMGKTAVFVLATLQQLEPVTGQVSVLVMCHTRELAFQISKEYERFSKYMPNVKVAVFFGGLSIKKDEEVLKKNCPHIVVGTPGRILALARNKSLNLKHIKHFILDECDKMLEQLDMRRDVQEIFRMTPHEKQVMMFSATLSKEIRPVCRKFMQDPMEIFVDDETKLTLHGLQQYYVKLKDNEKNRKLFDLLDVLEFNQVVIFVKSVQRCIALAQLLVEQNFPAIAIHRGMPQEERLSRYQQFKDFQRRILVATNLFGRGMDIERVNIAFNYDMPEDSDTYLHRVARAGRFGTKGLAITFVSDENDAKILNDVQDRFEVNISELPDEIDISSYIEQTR

binding result: binds
B1: purified UIF (recombinant) (natural protein, human, UniProt Q96QD9 1-318, looked up)
chain: MNRFGTRLVGATATSSPPPKARSNENLDKIDMSLDDIIKLNRKEGKKQNFPRLNRRLLQQSGAQQFRMRVRWGIQQNSGFGKTSLNRRGRVMPGKRRPNGVITGLAARKTTGIRKGISPMNRPPLSDKNIEQYFPVLKRKANLLRQNEGQRKPVAVLKRPSQLSRKNNIPANFTRSGNKLNHQKDTRQATFLFRRGLKVQAQLNTEQLLDDVVAKRTRQWRTSTTNGGILTVSIDNPGAVQCPVTQKPRLTRTAVPSFLTKREQSDVKKVPKGVPLQFDINSVGKQTGMTLNERFGILKEQRATLTYNKGGSRFVTVG
notes: it may be the GB1-6His-UIF of m18; also called recombinant UIF
